Laboratory results taken from the DeepSol protein solubility set.

experiment: soluble on expression in E. coli; label from the status in PepcDB or PDB records

Sequence | soluble on expression in E. coli
MRVVLAPMEGVLDYRMRDLLTQVGSYDLCVTEFIRVVDQVLPDRVFHRYCPELIDADVYGSCTKAGTPVRVQLLGQYPEYMAENAAKVIELGSSGIDLNFGCPSKTVNKSRGGSILLKDPENLYQIIKAVKEAVPSDTIVSAKIRLGYEDKTLAIENGQAVEAAGANELTIHARTKLEGYKPPAHWHWIAKVKNAINIPVIANGEIWNLEDAIKCREISGCTDLMVGRGALTIPNLGQVIKQESDNMPWLEVRAILSAYTEFETHGDKSKYYCNRIKQWLKYLKSHYKEADVLFDEIRRLKTAEGIRAAL | not soluble
MSGAAKRVATSSVNWSKLAERLVPEHAAELTRVKGVSGTFQSAVSQLPADLPKIDFAALKKALPAHSAVLDSLQKQYESVKIPYGEVPAEYLKEVDQWVDYNNARIKLHEVKVADGLQEAKKVEEKWAKAPPVEHFDRQHFVEYFPAHFYDLRYQNRIPDPCNIGLNETPEIENRFKDYKVLRRADKVDDH | not soluble
SGIGTGHTSMNKGGKDVTLLELSVEKRRWRINMETSKIILEKMQSDDVLDGNRERSNEREGRDSLSEKLKSKQNLKDEEKLRYIKTGKSIQVEGTVRAKALRWVQ | soluble
MGHHHHHHSHMSSMQRRAFVALGLMAMLAACSPAKKEDAAAGQTPIKLATDWRAQAELGGYYQALATGEYKKRGLDVTLIQGGPAVNVPQLLATGAVDVGVGSNSFIIMNLAKENAPVKAVAAFMQKDPQVLIAHPDQGINGIADMKGRPILLSDASVTAFWVWLKAKYGFTDDQVRKYNYSSAPFLADKRVVQQGYATSEPYLIEKEGKIKPAVFLLADSGYPAYASFALVPDSLIAKNPAAVQAFVEATAAGWTSYLYGDPKPGDAAILKDNPEMTQDVLDQAREKMRSYGIVSANGGRGDIGQMTDARWAEFFKVASEQGVYPADMDYKKAYTLQFLPKGP | not soluble
MATEAVYGSWDSPITPDLFGKCNCKSICEMQVVGGNVYWIEQNSVTGKRELYSKPTNGDTRTRWADGQSVQTAIHEYGGGALHVLADGSVLFATIEGVFYQKSADSGVEQLAEGNNRMFRFSDFSATDTHVFCVNETHQADAKFPENRLISIDRATKNQNVIAHGADFYAYPRVSPDGKKLVWMQWSLPNMPWDETSIRMADLKGGESSNEVTLKDGTGKQINYSEPTWDGDELLTVNDSTNWWNVYKSAAEPNSVEKNLNPIQREISYPLWQLGFRNYVLNKKYLVMNADGILYVRSGDVTVEIPTPGYTVFGYLSLDQNGSDLFAIASGPKRASSVISIDLANKNFPLKVHRESRDSSEIDALEISEPEEFVFKSDGVDVSAGTLPPVLLLGHGGPTAPAQNNLDLKKQFFTSRGIAVFDVNYRGSTGFGTEFRRMLYKNCGVADRDDMLNGAKALVEQGKVDAEKVLITGSSSGGYLILSCLISPKNIIKAAVSVYGVADLLALDEDTHKLERCYNEMLIGKYPEQASIYEERSPIYHIDKIRTPIAFLHGREDTVVPMSQSITMYEKIRASGVTTALMLFDGEGHGFRNGQVIKESTEATFYFLMKAVGIEPSISSKIEIVNPKH | not soluble
MAGDPMFKLKINNFQLGFKLVQWPVTNHLLKHFYVFPINNKGGLAIKRIISLALFKKRLNKDKINNCHVWEEELPDGSYDMGFNGNFNHMEKRKSGYVTQKQFSEFKDANNQRLIKIETTLAIQGEQINKLTQTVEKQGEQINQLVQVVLLQGASKLENFKWSKKHKDKSLMPAWIVWKIFWWKVLEHHHHHH | not soluble
EPNRLIKEKSPYLLQHAYNPVDWYPWGEEAFEKARKENKPVFLSIGYSTCHWCHMMAHESFEDEEVAGLMNEAFVSIKVDREERPDIDNIYMTVCQIILGRGGWPLNIIMTPGKKPFFAGTYIPKNTRFNQIGMLELVPRIKEIWEQQHEEVLDSAEKITSTIQEMIKESSG | soluble
GAKLNRKLRQDSTDRYKTKLYLWRNLGGLIPEDMAISVTESITADWKQYNDMMSKVRNETLDILKTNKVATEDYIGYIAFAEELAHQVWKNKNSSPDPNTANEASKTDLESKYSDVYGLDVTVLDAIYNAVIPIIMGGGS | soluble
MGSDKIHHHHHHMELIEILLKKLNKNAVVTEIAKDKDPFKVLISTIISARTKDEVTEEVSKKLFKEIKDVDDLLNIDEEKLADLIYPAGFYKNKAKNLKKLAKILKENYNGKVPDSLEELLKLPGVGRKTANLVITLAFNKDGICVDTHVHRICNRWEIVDTETPEETEFELRKKLPKKYWKVINNLLVVFGREICSSKSKCDKCFKEIKEKCPYYEKIKHFENILKKFNFRKVSKNKIPNEKGTYILKIRLKEGKKIKFGKTERFFKKGYYFYIGSAFGNSMNLKNRIERHLKDDKKMHWHIDYLLKYGKIEEIYITNERVECEVANEFIKKFDFVENFGCSDCKCKSHLFYLKP | not soluble
MDTEPIQIDSDDSFDAGAPTSSHTMDRKSIIEKYQKLKEESKKLDDLAVEVRSLFMICKQMEECYTKRIDRIVATYGEIRYLHDGTILLLVTIHNITNQPMIDWVISINPTSIFPNSSSSCCQTINVGSLLPGIRKTFQCQLTCKDPPVLLQLSLLRTYQLGGIVKCFKVKLDPILVTAWNQAQRVERKNMETSFTSTIRLPNSLINLLSGSPDTVISVPQVFKSILNVPNVQEDHIVIKMSSAFVVGATGAVGSELVKLLAESTKFSKVVVLARRPVDGATGDKLIQKTVDFDKLEENAEDIQGVDVAFCALGTTRGKSGADGFYKVDHDYVMSAAKMAKENGVKQFVLVSSVGADASSRFLYPKTKGEVEKEIGELNFEKFVIMRPGLIEAKRPEFRIGEFLGKIVTAPLGLFSNRFSSSATAIAQAMINATQTEETGNQIWNNSKIVEESKKYTA | not soluble
MENIFLKRLEFKAFEEDSVFSKIEGLNKFNSLNFKKPITFFSGENGTGKSTLLEAIAVNWGFNPEGGSINFNFSTKDTHLDLHNYLTVGKSVKRATDGFFLRAESFYNVATYAENIDLDFSEYGDKSLHHQSHGESFLNLVNHRFRGNGLYLLDEPEAALSPQRQLALMISIKKLIDEGSQFIIVSHSPILLAMPDSQIISFDKDSPLEITYEESMPYEITSLFLNNKNRILSHLFAE | not soluble
AIASKREDEGCARKRRTEAGQRSEDCMNPNSVVISAFKVFQQELDTRYDKYERLVKISRDVTIESKRTIFLLHRVASVPDVEEILNEAEVKLDGVRQKIGQIAEELRGEDLHQFHRAFTPGIQEYVEAVSFHHFIRHRSLISLEEINARLVFIRDNNKAVGEGTFSSPCVLTFQITPTDYLLGVADLTGELMRMCISSVGNGDMDTPFQLSGFLRQIHDGFSLIGNTGPYEVSKKLHALRQSLGKVEDACYTLRVRGSEIPKHMLADVFSSRAAHIDPDDAMA | soluble
MYQVITMYGDNEPWWFFDDWQEDIVQEKTFDNLTDAETYYVEVWQKLSQNYTYVNTKPNYLTAFWNDGEERWCEECDEDLQQYFGLALLENHHAVTFENKAEFTTISNHFGKTKFCKRKVILEHHHHHH | soluble
DTTKNIFIEGDNLDALKLLQENYLGKIKMVYIDPPYNTGNDFVYADDFVDEVSEFFLRSNQVDREGNRLTANPETSGRFHSDWLSMMYSRLKLSRNLLRDDGLIVIHIDENEYPNLEKLLAEIYGEKNNLGTIVWDKRNPKGDATGVAQQHELICIYCKDREFFKTTCEFQRPKENAGKMLAKAKQILSKEGGVTEKARKEYKDWVNQQDLTGGEKAYNQIDDNGDVFRPVSMAWPNKKKAPEDYFIPLIHPVTGKECPVPERGWRNPPATMQELLKSGLIIFGPDEKTQPTRKYRLNDNLFENIPSLLYYGGSDDALLADLKIPFDTPKPVQVAKRLIQSICKNDDILIDFFAGSCTAAHALMLLNAEDGANRRFIMVQLPEECDEKSEAKKLGYSVVSEIGKNRIRRAAKKIREEFSEILATRNTELDLGFRLLKVDTSNMAD | not soluble
MGSDKIHHHHHHMGSSPARMSSGAPAPRVEVECLKAYSAPLEGRRGLLRLDFNENTIGPSPRVLEALRAIPADQIAVYPEYDGLREAVVANLSNRDQGRPGLTQPLSPSQIGLFNGVDAAIHAIFHAYGDRGDRLLTTSPTFGYYTPCAQMQGMKILAIPYEGSDFRFPLQVIRTLLQQKRPRLLLLCNPNNPTGTRLAPEQILELAVAAPETLVVVDELYEAFTGDSVLPQADFSVTPNLLVLRSLAKTAGLAGLRMGFAIGSADVIDRVSRVTGPYDINSFAVTAAFAALDDQAYVDAYVADVLKARDWISARLDASGVPYHLDGGNYLLIWPQQQPTEVEAALRKRGILVRLMTGKPLIDGSLRVSIGTIEQMQQFWQAFATVESLAA | not soluble
